# Test results published in paper PMC10764318.
# Assays:
# Assay in all cases: BLI
# [1] = target: WRAIR-5004 (rhesus macaque)
# [2] = target: WRAIR-5011 (rhesus macaque)
# [3] = target: WRAIR-5020 (rhesus macaque)
# [4] = target: WRAIR-5021 (rhesus macaque)
# Chain of WRAIR-5021 (rhesus macaque) (VH, as listed by the source, chain 1 of 2): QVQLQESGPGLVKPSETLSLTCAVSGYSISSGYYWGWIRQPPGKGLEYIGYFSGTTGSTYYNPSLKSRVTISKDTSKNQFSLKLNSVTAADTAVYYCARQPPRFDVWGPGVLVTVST
# Chain of WRAIR-5021 (rhesus macaque) (VL, as listed by the source, chain 2 of 2): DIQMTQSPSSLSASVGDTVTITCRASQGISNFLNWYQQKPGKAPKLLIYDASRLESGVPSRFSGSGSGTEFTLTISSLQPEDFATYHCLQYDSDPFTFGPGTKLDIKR
# Chain of WRAIR-5004 (rhesus macaque) (VH, as listed by the source, chain 1 of 2): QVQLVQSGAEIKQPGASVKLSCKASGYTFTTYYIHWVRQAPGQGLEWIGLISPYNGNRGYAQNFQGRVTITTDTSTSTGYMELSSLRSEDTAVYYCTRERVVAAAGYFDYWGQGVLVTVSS
# Chain of WRAIR-5004 (rhesus macaque) (VL, as listed by the source, chain 2 of 2): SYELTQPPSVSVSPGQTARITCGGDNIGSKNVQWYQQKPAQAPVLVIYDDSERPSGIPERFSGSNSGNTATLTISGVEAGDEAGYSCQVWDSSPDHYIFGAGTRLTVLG
# Chain of WRAIR-5011 (rhesus macaque) (VH, as listed by the source, chain 1 of 2): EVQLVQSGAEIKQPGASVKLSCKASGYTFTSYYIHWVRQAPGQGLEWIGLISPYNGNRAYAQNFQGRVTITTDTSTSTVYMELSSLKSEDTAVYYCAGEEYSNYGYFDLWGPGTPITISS
# Chain of WRAIR-5011 (rhesus macaque) (VL, as listed by the source, chain 2 of 2): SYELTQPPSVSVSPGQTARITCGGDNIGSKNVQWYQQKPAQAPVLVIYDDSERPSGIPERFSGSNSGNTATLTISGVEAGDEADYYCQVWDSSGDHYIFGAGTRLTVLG
# Chain of WRAIR-5020 (rhesus macaque) (VH, as listed by the source, chain 1 of 2): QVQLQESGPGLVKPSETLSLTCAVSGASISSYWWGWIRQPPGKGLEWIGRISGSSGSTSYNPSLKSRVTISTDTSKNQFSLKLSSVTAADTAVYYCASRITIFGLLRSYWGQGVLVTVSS
# Chain of WRAIR-5020 (rhesus macaque) (VL, as listed by the source, chain 2 of 2): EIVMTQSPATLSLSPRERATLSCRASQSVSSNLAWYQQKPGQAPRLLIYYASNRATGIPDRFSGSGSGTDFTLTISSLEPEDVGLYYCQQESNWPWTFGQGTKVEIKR
substance,measurement,setting,value
SARS-CoV-2 Delta RBD (from UniProt P0DTC2 331-527) (domain or fragment),Kd,[1],2.44 nM
same,Kd,[2],0.48 nM
same,Kd,[3],108 nM
same,Kd,[4],3.62 nM
